# Reference: paper PMC10644982, “Targeting amyotrophic lateral sclerosis by neutralizing seeding-competent TDP-43 in CSF” (Brain Communications, 2023)
# B1: TDP-43 peptide (352–414) (peptide)
# peptide: NNQNQGNMQREPNQAFGSGNNSYSGSNSGAAIGWGSASNAGSGSGFNGGFGSSMDSKSSGWGM
# notes: free N- and C-termini (H- ... -OH); also called assay substrate; SAA substrate
# Target: the molecule itself
# Experiment: thioflavin T aggregation kinetics + electron microscopy; synthetic substrate peptide alone at a range of concentrations, seed-free or seeded with the final product of the 15 µM reaction; 40 mM Tris-HCl, 5 mM DTT, 0.002% SDS, 50 µM ThT, 40°C, intermittent shaking; fibrils seen by negative-stain transmission electron microscopy
protein,measurement,value
B1,binding result,binds
